Results published in article PMC3078936 (PLoS ONE, 2011).

Molecular target: T1, DYNLL1 (Homo sapiens, UniProt P63167)
T1 construct: 6xHis (N); made in house; host or cells: E. coli BL21(DE3)Star
Assay: Isothermal titration calorimetry of peptide/protein binding to DYNLL1
Conditions: ITC binding enthalpy, PBS + 3 mM 2-mercaptoethanol pH 7.4, 299 K
Procedure: Binding parameters of the in vitro evolved Ac-[…] and naturally evolved Ac-DKSTQTD consensus peptides were determined by isothermal titration calorimetry (ITC). Synthetic peptides were used and N-terminal acetylation was applied to better mimic a non-terminal peptide motif by avoiding the positively charged N-terminus. In order to elucidate the particular contribution of Val-5 to the binding affinity, several control peptides were produced. The in vitro evolved Val-5 was replaced with a glycine (Gly-5) to assess side chain function. In a further truncated variant the entire amino acid residue was replaced with an acetate group (Ac-5) to assess the function of the amide group at position −5. The same variations of Val-5, Gly-5 or Ac-5 were also introduced in the framework of the naturally evolved consensus peptide. DYNNL1 binding of all six variants was analyzed by ITC. In all measurements the stoichiometry of binding was 1∶1 (2 peptides binding to one homodimer DYNNL1). […]
All peptides and DYNLL1 were dialyzed overnight in PBS buffer supplemented with 3 mM 2-mercaptoethanol (pH 7.4). […] For each experiment the thermodynamic parameters were determined at 299 K. We used a VP-ITC instrument from Microcal and the data were fitted by the software package Origin 5.0 (OriginLab) using the simple A + B to AB binding model. […]

T1 sequence (P63167 whole entry): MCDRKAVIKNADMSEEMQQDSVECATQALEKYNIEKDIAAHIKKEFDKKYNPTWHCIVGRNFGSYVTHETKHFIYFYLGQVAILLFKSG

B1: EML3 (8-94): recombinant fragment of EML3 (residues 8–94) containing a coiled coil domain and the in vitro evolved consensus motif (protein, UniProt Q32P44 8-94, looked up, fragment)
chain: GDGPAREALQSLSQRLRVQEQEMELVKAALAEALRLLRLQVPPSSLQGSGTPAPPGDSLAAPPGLPPTCTPSLVSRGTQTETEVELK
A ΔH of -7.74 kcal/mol was found for B1 in this work.
